Data on 7 molecules can be found in publication PMC7954794, “Protein context shapes the specificity of SH3 domain-mediated interactions in vivo” (Nature Communications, 2021).

In the test the test system is PPIs identified as affected by the SH3 domain deletions. As to the kind of experiment: Liquid DHFR-PCA low-throughput validation of PPIs affected by SH3 deletion (Fig. S1D-E). The class given is cell-based, Saccharomyces cerevisiae. Particulars: label = prey, liquid DHFR-PCA, prey _1 = lost, _2 = gained in screen. The procedure, abridged: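 Yeast diploids from DHFR-PCA mating grown 48 h in synthetic complete MSG medium pH 6.0 with NAT and HPH, normalized to 1 OD and diluted to 0.1 OD in liquid PCA selection medium. Growth followed by OD every 15 min for 72 h at 30 °C.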

B1: YBL039C_2 (protein, UniProt P28274 1-579, looked up)
CTP synthase 1: MKYVVVSGGVISGIGKGVLASSTGMLMKTLGLKVTSIKIDPYMNIDAGTMSPLEHGECFVLDDGGETDLDLGNYERYLGVTLTKDHNITTGKIYSHVIAKERKGDYLGKTVQIVPHLTNAIQDWIERVAKIPVDDTGMEPDVCIIELGGTVGDIESAPFVEALRQFQFKVGKENFALIHVSLVPVIHGEQKTKPTQAAIKGLRSLGLVPDMIACRCSETLDKPTIDKIAMFCHVGPEQVVNVHDVNSTYHVPLLLLEQKMIDYLHARLKLDEISLTEEEKQRGLELLSKWKATTGNFDESMETVKIALVGKYTNLKDSYLSVIKALEHSSMKCRRKLDIKWVEATDLEPEAQESNKTKFHEAWNMVSTADGILIPGGFGVRGTEGMVLAARWARENHIPFLGVCLGLQIATIEFTRSVLGRKDSHSAEFYPDIDEKNHVVVFMPEIDKETMGGSMRLGLRPTFFQNETEWSQIKKLYGDVSEVHERHRHRYEINPKMVDELENNGLIFVGKDDTGKRCEILELKNHPYYIATQYHPEYTSKVLDPSKPFLGLVAASAGILQDVIEGKYDLEAGENKFNF
Regarding B1, the “Ratio (Deletedscore / WTscore)” value (bait BZZ1-2) worked out at 1.633, the “Ratio (Deletedscore / WTscore)” value (bait HSE1) is reported as 1.248 and the “Ratio (Deletedscore / WTscore)” value (bait LSB3) is 1.147.

B2: YCR002C_2 (protein, UniProt P25342 1-322, looked up)
Cell division control protein …: MDPLSSVQPASYVGFDTITNQIEHRLLKKGFQFNIMVVGQSGLGKSTLINTLFASHLIDSATGDDISALPVTKTTEMKISTHTLVEDRVRLNINVIDTPGFGDFIDNSKAWEPIVKYIKEQHSQYLRKELTAQRERFITDTRVHAILYFLQPNGKELSRLDVEALKRLTEIANVIPVIGKSDTLTLDERTEFRELIQNEFEKYNFKIYPYDSEELTDEELELNRSVRSIIPFAVVGSENEIEINGETFRGRKTRWSAINVEDINQCDFVYLREFLIRTHLQDLIETTSYIHYEGFRARQLIALKENANSRSSAHMSSNAIQR
With B2, the “Ratio (Deletedscore / WTscore)” value amounted to 1.169 (bait BZZ1-2), 0.2463 (bait HOF1) and 1.096 (bait LSB3).

B3: YAR042W_2 (protein, UniProt P35845 1-1188, looked up)
Oxysterol-binding protein …: MEQPDLSSVAISKPLLKLKLLDALRQGSFPNLQDLLKKQFQPLDDPNVQQVLHLMLHYAVQVAPMAVIKEIVHHWVSTTNTTFLNIHLDLNERDSNGNTPLHIAAYQSRGDIVAFLLDQPTINDCVLNNSHLQAIEMCKNLNIAQMMQVKRSTYVAETAQEFRTAFNNRDFGHLESILSSPRNAELLDINGMDPETGDTVLHEFVKKRDVIMCRWLLEHGADPFKRDRKGKLPIELVRKVNENDTATNTKIAIDIELKKLLERATREQSVIDVTNNNLHEAPTYKGYLKKWTNFAQGYKLRWFILSSDGKLSYYIDQADTKNACRGSLNMSSCSLHLDSSEKLKFEIIGGNNGVIRWHLKGNHPIETNRWVWAIQGAIRYAKDREILLHNGPYSPSLALSHGLSSKVSNKENLHATSKRLTKSPHLSKSTLTQNDHDNDDDSTNNNNNKSNNDYDDNNNNNNNDDDDYDDDDESRPLIEPLPLISSRSQSLSEITPGPHSRKSTVSSTRAADIPSDDEGYSEDDSDDDGNSSYTMENGGENDGDEDLNAIYGPYIQKLHMLQRSISIELASLNELLQDKQQHDEYWNTVNTSIETVSEFFDKLNRLTSQREKRMIAQMTKQRDVNNVWIQSVKDLEMELVDKDEKLVALDKERKNLKKMLQKKLNNQPQVETEANEESDDANSMIKGSQESTNTLEEIVKFIEATKESDEDSDADEFFDAEEAASDKKANDSEDLTTNKETPANAKPQEEAPEDESLIVISSPQVEKKNQLLKEGSFVGYEDPVRTKLALDEDNRPKIGLWSVLKSMVGQDLTKLTLPVSFNEPTSLLQRVSEDIEYSHILDQAATFEDSSLRMLYVAAFTASMYASTTNRVSKPFNPLLGETFEYARTDGQYRFFTEQVSHHPPISATWTESPKWDFYGECNVDSSFNGRTFAVQHLGLWYITIRPDHNISVPEETYSWKKPNNTVIGILMGKPQVDNSGDVKVTNHTTGDYCMLHYKAHGWTSAGAYEVRGEVFNKDDKKLWVLGGHWNDSIYGKKVTARGGELTLDRIKTANSATGGPKLDGSKFLIWKANERPSVPFNLTSFALTLNALPPHLIPYLAPTDSRLRPDQRAMENGEYDKAAAEKHRVEVKQRAAKKEREQKGEEYRPKWFVQEEHPVTKSLYWKFNGEYWNKRKNHDFKDCADIF
Consider B3, for which the “Ratio (Deletedscore / WTscore)” value (bait ABP1) stood at 1.203.

B4: YGR281W_2 (protein, UniProt P53049 1-1477, looked up)
Oligomycin resistance …: MTITVGDAVSETELENKSQNVVLSPKASASSDISTDVDKDTSSSWDDKSLLPTGEYIVDRNKPQTYLNSDDIEKVTESDIFPQKRLFSFLHSKKIPEVPQTDDERKIYPLFHTNIISNMFFWWVLPILRVGYKRTIQPNDLFKMDPRMSIETLYDDFEKNMIYYFEKTRKKYRKRHPEATEEEVMENAKLPKHTVLRALLFTFKKQYFMSIVFAILANCTSGFNPMITKRLIEFVEEKAIFHSMHVNKGIGYAIGACLMMFVNGLTFNHFFHTSQLTGVQAKSILTKAAMKKMFNASNYARHCFPNGKVTSFVTTDLARIEFALSFQPFLAGFPAILAICIVLLIVNLGPIALVGIGIFFGGFFISLFAFKLILGFRIAANIFTDARVTMMREVLNNIKMIKYYTWEDAYEKNIQDIRTKEISKVRKMQLSRNFLIAMAMSLPSIASLVTFLAMYKVNKGGRQPGNIFASLSLFQVLSLQMFFLPIAIGTGIDMIIGLGRLQSLLEAPEDDPNQMIEMKPSPGFDPKLALKMTHCSFEWEDYELNDAIEEAKGEAKDEGKKNKKKRKDTWGKPSASTNKAKRLDNMLKDRDGPEDLEKTSFRGFKDLNFDIKKGEFIMITGPIGTGKSSLLNAMAGSMRKTDGKVEVNGDLLMCGYPWIQNASVRDNIIFGSPFNKEKYDEVVRVCSLKADLDILPAGDMTEIGERGITLSGGQKARINLARSVYKKKDIYLFDDVLSAVDSRVGKHIMDECLTGMLANKTRILATHQLSLIERASRVIVLGTDGQVDIGTVDELKARNQTLINLLQFSSQNSEKEDEEQEAVVAGELGQLKYESEVKELTELKKKATEMSQTANSGKIVADGHTSSKEERAVNSISLKIYREYIKAAVGKWGFIALPLYAILVVGTTFCSLFSSVWLSYWTENKFKNRPPSFYMGLYSFFVFAAFIFMNGQFTILCAMGIMASKWLNLRAVKRILHTPMSYIDTTPLGRILNRFTKDTDSLDNELTESLRLMTSQFANIVGVCVMCIVYLPWFAIAIPFLLVIFVLIADHYQSSGREIKRLEAVQRSFVYNNLNEVLGGMDTIKAYRSQERFLAKSDFLINKMNEAGYLVVVLQRWVGIFLDMVAIAFALIITLLCVTRAFPISAASVGVLLTYVLQLPGLLNTILRAMTQTENDMNSAERLVTYATELPLEASYRKPEMTPPESWPSMGEIIFENVDFAYRPGLPIVLKNLNLNIKSGEKIGICGRTGAGKSTIMSALYRLNELTAGKILIDNVDISQLGLFDLRRKLAIIPQDPVLFRGTIRKNLDPFNERTDDELWDALVRGGAIAKDDLPEVKLQKPDENGTHGKMHKFHLDQAVEEEGSNFSLGERQLLALTRALVRQSKILILDEATSSVDYETDGKIQTRIVEEFGDCTILCIAHRLKTIVNYDRILVLEKGEVAEFDTPWTLFSQEDSIFRSMCSRSGIVENDFENRS
For B4, the “Ratio (Deletedscore / WTscore)” value is, setting by setting: (bait BOI1) 0.9762; (bait BZZ1-2) 1.357; (bait LSB3) 1.455.

B5: YKR048C_2 (protein, UniProt P25293 1-417, looked up)
Nucleosome assembly protein: MSDPIRTKPKSSMQIDNAPTPHNTPASVLNPSYLKNGNPVRAQAQEQDDKIGTINEEDILANQPLLLQSIQDRLGSLVGQDSGYVGGLPKNVKEKLLSLKTLQSELFEVEKEFQVEMFELENKFLQKYKPIWEQRSRIISGQEQPKPEQIAKGQEIVESLNETELLVDEEEKAQNDSEEEQVKGIPSFWLTALENLPIVCDTITDRDAEVLEYLQDIGLEYLTDGRPGFKLLFRFDSSANPFFTNDILCKTYFYQKELGYSGDFIYDHAEGCEISWKDNAHNVTVDLEMRKQRNKTTKQVRTIEKITPIESFFNFFDPPKIQNEDQDEELEEDLEERLALDYSIGEQLKDKLIPRAVDWFTGAALEFEFEEDEEEADEDEDEEEDDDHGLEDDDGESAEEQDDFAGRPEQAPECKQS
On to B5, for which the “Ratio (Deletedscore / WTscore)” value reads like this: (bait BOI2) 1.065; (bait LSB3) 1.174.

B6: YKL051W_2 (protein, UniProt P35735 1-353, looked up)
Protein SFK1: MIQFKSPGNWLFIVPWIAFIPWYGMLIAMLICWASQGHPIYWFMHSEQFPVYISDIGATNLRPLFISCAGWQGLGYVITVALEFFQRSGYLPFQLKKKDPSISDSTSYAEKLHSGKYLMPPYYTKDERNLIFAAFVLGSIGELALLFSSIFSTALYHRVHIAMVSVFVVFMFLSTCCLIAEYFLMGRHYASVHPLASPHFNPQSSEKSFNQDYNTVDELPWYKWKGHVWNKFTISATLKVIWLTLAVVWAICFGAINDRSKSACFEWLLAFWFGIIFMILSADFYLGGRYRQSRYFNHVESFSGYYKYDKALGLYHSEDVLPSDDNAGVIATETASSNIYNNSSSNESIQVVV
Turning to B6, the “Ratio (Deletedscore / WTscore)” value (bait BOI1) amounted to 0.8707, the “Ratio (Deletedscore / WTscore)” value (bait BZZ1-2) was found to be 1.125 and the “Ratio (Deletedscore / WTscore)” value (bait LSB3) is listed as 1.525.

B7: YDR379W_2 (protein, UniProt Q06407 1-1009, looked up)
Rho-type GTPase-activating …: MSADPINDQSSLCVRCNKSIASSQVYELESKKWHDQCFTCYKCDKKLNADSDFLVLDIGTLICYDCSDKCTNCGDKIDDTAIILPSSNEAYCSNCFRCCRCSNRIKNLKYAKTKRGLCCMDCHEKLLRKKQLLLENQTKNSSKEDFPIKLPERSVKRPLSPTRINGKSDVSTNNTAISKNLVSSNEDQQLTPQVLVSQERDESSLNDNNDNDNSKDREETSSHARTVSIDDILNSTLEHDSNSIEEQSLVDNEDYINKMGEDVTYRLLKPQRANRDSIVVKDPRIPNSNSNANRFFSIYDKEETDKDDTDNKENEIIVNTPRNSTDKITSPLNSPMAVQMNEEVEPPHGLALTLSEATKENNKSSQGIQTSTSKSMNHVSPITRTDTVEMKTSTSSSTLRLSDNGSFSRPQTADNLLPHKKVAPSPNKKLSRSFSLKSKNFVHNLKSKTSEMLDPKHPHHSTSIQESDTHSGWGVSSTHTNIRKSKAKKNPVSRGQSDSTIYNTLPQHGNFTVPEFNHKKAQSSLGSISKKQNSNDTATNRRINGSFTSSSSGHHIAMFRTPPLESGPLFKRPSLSSESAHHRSSSLQTSRSTNALLEDDSTKVDATDESATSLEKDFYFTELTLRKLKLDVRELEGTKKKLLQDVENLRLAKERLLNDVDNLTREKDKQSASSRESLEQKENIATSITVKSPSSNSDRKGSISNASPKPRFWKIFSSAKDHQVGDLESQQRSPNSSSGGTTNIAQKEISSPKLIRVHDELPSPGKVPLSPSPKRLDYTPDGSHLYGSSLQARCAYEKSTVPIIIRCCIDRIEKDDIGLNMEGLYRKSGSQTLVEEIENEFAQNNSLHSDTLSPKLNALLNQDIHAVASVLKRYLRKLPDPVLSFSIYDALIDLVRNNQLIERLPLNNDKFLDSPQKVTIYEMVLKSLLEIFKILPVEHQEVLKVLAAHIGKVRRCSERNLMNLHNLSLVFAPSLIHDFDGEKDIVDMKERNYIVEFILGNYRDIFKQA
Regarding B7, the “Ratio (Deletedscore / WTscore)” value (bait BOI1) came to 0.9152.
